Experiment [1] has as its target T1, hLAG-3-mFc融合蛋白 (human, UniProt P18627 23-450).
T1 construct: range 1-450; no cleavage site is stated; also called hLAG-3-mFc重组蛋白; 人LAG-3-mFc重组蛋白; not shown: mouse Fc
T1 sequence (looked up): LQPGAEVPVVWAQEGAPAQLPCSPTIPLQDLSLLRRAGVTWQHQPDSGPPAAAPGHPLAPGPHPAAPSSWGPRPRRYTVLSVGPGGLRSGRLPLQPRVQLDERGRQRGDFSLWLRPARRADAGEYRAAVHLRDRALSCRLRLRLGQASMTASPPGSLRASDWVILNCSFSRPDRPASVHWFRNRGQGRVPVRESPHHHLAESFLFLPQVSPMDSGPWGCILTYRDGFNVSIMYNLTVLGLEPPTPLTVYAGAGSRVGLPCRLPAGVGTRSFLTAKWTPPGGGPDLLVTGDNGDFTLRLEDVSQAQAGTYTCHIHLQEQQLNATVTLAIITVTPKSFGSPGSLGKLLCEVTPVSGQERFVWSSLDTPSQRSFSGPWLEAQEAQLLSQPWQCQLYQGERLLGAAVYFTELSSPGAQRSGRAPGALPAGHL
Nature of the experiment: FACS competition: blocking of hLAG-3-mFc (2 ug/ml) binding to HLA on 293/rhHLA cells.

Experiment [2] addresses T1, hLAG-3-mFc融合蛋白. The experiment in a line: BLI (ForteBio Octet QKe), antibody captured on AHC probe, hLAG-3-mFc 60 nM in solution, 1:1 fit.

Consider 6 molecules from patent CN114907478A (MABWELL SHANGHAI BIOSCIENCE CO LTD, dated 2022).

B1: ch4C8嵌合抗体 (antibody, human IgG4, V domains shown)
VH: EVQLVESGGGLVKIGGSLKLSCAGSGFTFSNYAMSWVRQTPEKRLEWVATITYGTTYTFYSDNVKGRFTISRDNAKNNLSLQMSHLKSEDTAMYYCTRGEYGSSFAYWGQGTLVTVSA
VL: DIVMTQSQKFMSTSVGDRVSITCKASQNVRTAVAWYQQKPGQSPKALIYLASNRHTGVPDRFTGSGSETDFTLTINNVQSEDLADYFCLQHWNYPLTFGGGTKLEIK
In turn, B1 displayed a 50% inhibitory concentration (IC50) in experiment [1] of 1.28 µg/mL. The molecule also gave a dissociation constant (Kd) in experiment [2] of 0.427 nM.

B2: ch7F1嵌合抗体 (antibody, human IgG4, V domains shown)
VH: EVQLVESGPGLVAPSQSLSITCTVSGFSLTDYAVSWIRQPPGKGLEWLGVVWGDGSTNYHSALISRLIITRDNSKRQVFLKLNSLQTDDTATYYCAKGGGGMDYWGQGTSVTVSS
VL: DIVLSQSPAILSASPGEKVTVTCRASSSVSYMHWFQQKPGSSPKPWIYATSNLASGVPVRFSGSGSGTSYSLTISRVEAEDAATYYCQHYNTNPPTWTFGGGSKLEIK
Molecule B2 returned a half-inhibitory concentration (IC50) in experiment [1] of 11.5 µg/mL. The Kd in experiment [2] was found to be 5.52 nM.

B3: ch7F10嵌合抗体 (antibody, human IgG4, V domains shown)
VH: EVKLMESGAELVKPGASVKLSCKVSGVNIKDDYMHWVKQRTEQGLEWIGRIDPEDVETKYDPKFQGKATITSDTSSNTGYLQLSSLTSEDTAVYYCARSFYSNYVNYFDQWGQGTTLTVSS
VL: DIVMTQAPKSMSMSVGERVTLSCKASENVGTYVSWFQQKPEQSPKLLIYGASNRYTGVPDRFTGSGSATDFTLTISSVQAEDLADYHCGQSYSYPYTFGGGTKLEIK
For B3, the 50% inhibitory concentration (IC50) in experiment [1] came to 1.21 µg/mL. In experiment [2], this molecule returned a Kd of 0.117 nM.

B4: ch3A10嵌合抗体 (antibody, human IgG4, V domains shown)
VH: EVQLQQSGAELVRPGASVKLSCTASGFNIKDDYMHWMKQRPEQGLEWIGWIDPENGETEYASKFQGKATITADTYSNTVYLQFSSLTSEDTGVYYCTIFDYWGQGTSLTVSS
VL: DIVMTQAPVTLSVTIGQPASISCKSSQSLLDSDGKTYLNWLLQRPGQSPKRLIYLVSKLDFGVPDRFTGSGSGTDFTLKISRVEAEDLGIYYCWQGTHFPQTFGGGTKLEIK
On to B4, for which, in experiment [1], the IC50 was 3.33 µg/mL. The same molecule showed a dissociation constant (Kd) in experiment [2] of 0.128 nM.

B5: ch7C5嵌合抗体 (antibody, V domains shown)
VH: EVQLQQSGAELARPGASVKLSCKASGYTFTSYGISWVKQRTGQGLEWIGEIYPRSDNTYYNGKFKGKATLTADKSSSTAYMELRSLTSEDSAVFFCARRAFYYYGSNYYAMDYWGQGTSVTVSS
VL: DVLMTQTPLFLPVSLGDQASISCRSSQSIVHSNGDTYLEWYLRKPGQSPKLLIFKVSNRFSGVPDRFSGSGSGTDFTLKISRVEAEDLGVYYCFQGSHVPWTFGGGTKLEIK
For the molecule B5, in experiment [1], the concentration for half-maximal inhibition (IC50) was determined as 1.87 µg/mL. Besides, binding in experiment [2] was characterised by a dissociation constant (Kd) of 0.365 nM.

B6: ch10B4嵌合抗体 (antibody, human IgG4, V domains shown)
VH: EVQLQQSGAELARPGASVKLSCKASGYSFTNYGISWMKQRTGQGLEWIGEIYPRGGNTYYNGKFKGKATLTADQSSSTAYMELRSLTSEDSAVYFCARRAFYYFGSNYYAMDYWGQGTSVTVSS
VL: DVVMTQTPLFLPVSLGDQASISCRSSQSIVHSNGDTYLEWYLQKPGQSPKLLIYKVSNRFSGVPDRFSGSGSGTDFTLKISRVEAEDLGVYYCFQGSHVPWTFGGGTKLAIK
In experiment [1], B6 showed a 50% inhibitory concentration (IC50) of 2 µg/mL. Besides, binding in experiment [2] was put at a Kd of 0.0884 nM.

As a reminder, the IC50 is the point on the concentration scale where inhibition reaches its midpoint. The low end stands for greater potency in that assay, the high end for weaker potency in that assay. Usually Kd stands for the free concentration of one partner at which half of the binding sites on the other are occupied at equilibrium, for simple one-to-one binding. Low readings indicate higher affinity, high ones lower affinity.
